The text below walks through data of PMC8213124, “Chemokines act as phosphatidylserine-bound “find-me” signals in apoptotic cell clearance” (PLoS Biology, 2021).

The data set deals with the molecule itself. Nature of the data set: cross-linking; 50 ng chemokine in 20 mM HEPES, 30 min at room temperature without or with phospholipid (brain PE, PC, PS or heart CL; 1:8 chemokine:total lipid molar ratio), then 0.25 mM BS3 for 30 min; SDS-PAGE and immunoblot with anti-chemokine antibodies.

B1: CXCL11 (natural protein, human, UniProt O14625 22-94, looked up)
chain: FPMFKRGRCLCIGPGVKAVKVADIEKASIMYPSNNCDKIEVIITLKENKGQRCLNPKSKQARLIIKKVERKNF
notes: human chemokine CXCL11, untagged recombinant protein; source: bought: Peprotech, recombinant, produced in Escherichia coli
With B1, the binding result is listed as “binds”.

B2: CXCL9 (natural protein, human, UniProt Q07325 23-125, looked up)
chain: TPVVRKGRCSCISTNQGTIHLQSLKDLKQFAPSPSCEKIEIIATLKNGVQTCLNPDSADVKELIKKWEKQVSQKKKQKNGKKHQKKKVLKVRKSQRSRQKKTT
notes: human chemokine CXCL9, untagged recombinant protein; source: bought: Peprotech, recombinant, produced in Escherichia coli
Take B2: the binding result is “binds”.
